Experimental data published in patent US20250011363A1, “OPTIMIZED SHORTENED PEPTIDE THAT BINDS TO ACETYLCHOLINE RECEPTOR, AND USE THEREOF” (SKINMED CO., LTD., priority 2021, published 2025).

Each binder was assayed against acetylcholine receptor (assay: SPR, AchR immobilised, peptide 10 uM).
RRKTDR [6mer-1-1099] showed a Binding affinity (RU) of 24 RU. RRMAIK [6mer-1-1094] gave a Binding affinity (RU) of 42 RU. For KRMSHK [6mer-1-1100], the Binding affinity (RU) was 43 RU. In the case of RRKSDR [6mer-1-1093], the Binding affinity (RU) is reported as 37 RU. With RRCTMK [6mer-1-1113] the Binding affinity (RU) was 28 RU. KRCPPR [6mer-1-1107] was tested, and the Binding affinity (RU) was 36 RU. RKNCNK [6mer-1-1097] showed a Binding affinity (RU) of 39 RU. RKKDMR [6mer-1-1098] was tested, and the Binding affinity (RU) was 42 RU. In the case of KKFNFK [6mer-1-1114], the Binding affinity (RU) is reported as 38 RU. KRFMNK [6mer-1-1106] was tested, and the Binding affinity (RU) was 39 RU. KKEWFR [6mer-1-1117] showed a Binding affinity (RU) of 40 RU. Work on RRAHNK [6mer-1-1108] yielded a Binding affinity (RU) of 43 RU. With RRCHVK [6mer-1-1095] the Binding affinity (RU) was 27 RU. KKDDGK [6mer-1-1091] gave a Binding affinity (RU) of 32 RU. Work on KKPWKR [6mer-1-1087] yielded a Binding affinity (RU) of 27 RU. For KKDPWK [6mer-1-1112], the Binding affinity (RU) was 27 RU. Work on KRHPFR [6mer-1-1116] yielded a Binding affinity (RU) of 35 RU. RKYHDK [6mer-1-1092] showed a Binding affinity (RU) of 43 RU. RKFTKK [6mer-1-1089] gave a Binding affinity (RU) of 31 RU. Work on RRCTAR [6mer-1-1105] yielded a Binding affinity (RU) of 40 RU. KRFTKK [6mer-1-1102] showed a Binding affinity (RU) of 35 RU. Work on KRNSAR [6mer-1-1104] yielded a Binding affinity (RU) of 28 RU. With RKCAFR [6mer-1-1115] the Binding affinity (RU) was 43 RU. With KRCCVR [6mer-1-1109] the Binding affinity (RU) was 41 RU. For RRETHK [6mer-1-1088], the Binding affinity (RU) was 38 RU. For RRECDK [6mer-1-1101], the Binding affinity (RU) was 37 RU. Binder KKTMWR [6mer-1-1090] has a Binding affinity (RU) of 27 RU. With RKPEPR [6mer-1-1096] the Binding affinity (RU) was 23 RU. For KREDNK [6mer-1-1103], the Binding affinity (RU) was 27 RU. Work on RRASPR [6mer-1-1111] yielded a Binding affinity (RU) of 38 RU. Binder RKFTER [6mer-1-1110] has a Binding affinity (RU) of 24 RU.
